In the RNAGym collection of RNA variant scans (doi:10.1093/molbev/msab373):

B1: Azoarcus group I ribozyme (parent)
chain: GUGCCUUGCGCCGGGAAACCACGCAAGGGAUGGUGUCAAAUUCGGCGAAACCUAAGCGCCCGCCCGGGCGUAUGGCAACGCCGAGCCAAGCUUCGGCGCCUGCGCCGAUGAAGGUGUAGAGACUAGACGGCACCCACCUAAGGCAAACGCUAUGGUGAAGGCAUAGUCCAGGGAGUGGCGAAAGUCACACAAACCGG

Variants of: B1
Assay: reverse-splicing fitness (ratio to wild type); higher = more active; in vitro selection; Mg2+ level not given
In short: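 An in vitro group I ribozyme library with randomized positions was T7-transcribed and gel-purified. In triplicate, 10 pmol RNA in EPPS pH 7.5 was reacted with 50 pmoles of a 30-nt RNA substrate for 1 h at 37 °C across several added MgCl2 levels (1–48 mM), then stopped with EDTA. Products were reverse transcribed from a substrate-complementary primer, PCR-amplified and sequenced (HiSeq 4000). Fitness is a variant's read proportion after selection over that before, normalised to wild type.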

First: GUGCCUUGCGCCGGGAAACCACGCAAGGGAUGGUGUCAAAUUCGGCGAAACCUAAGCGCCCGCCCGGGCGUAUGGCAACGCGGAGCCAAGCUUCGGCGCCUGCGCCGAUGAAGGUGUAGGGACUAGACGGCACCCACCUAAGGCGAACGUUAUGGUGAAGGCAUAGUCGAGGGAGCGGCGAAAGUCACACAAACCGG [C82G A120G A145G C150U C169G U176C]
Second: GUGCCUUGCGCCGGGAAACCACGCAAGGGAUGGUGUCAAAUUCGGCGAAACCUAAGCGCCCGCCCGGGCGUAUGGCAACGCGGAGCCAAGCUUCGGCGCCUGCGCCGAUGAAGGUGUAGGGACUAGACGGCACCCACCUAAGGCGAACGUUAUGGUGAAGGCAUAGUCGAGGGAGGGGCGAAAGUCACACAAACCGG [C82G A120G A145G C150U C169G U176G]
The reverse-splicing fitness of the first is higher: 0.0245 for the first, 0.00428 for the second.

Going from GUGCCUUGCGCCGGGAAACCACGCAAGGGAUGGUGUCAAAUUCGGCGAAACCUAAGCGCCCGCCCGGGCGUAUGGCAACGCGGAGCCAAGCUUCGGCGCCUGCGCCGAUGAAGGUGUAGGGACUAGACGGCACCCACCUAAGGCGAACGUUAUGGUGAAGGCAUAGUCGAGGGAGAGGCGAAAGUCACACAAACCGG [C82G A120G A145G C150U C169G U176A] to GUGCCUUGCGCCGGGAAACCACGCAAGGGAUGGUGUCAAAUUCGGCGAAACCUAAGCGCCCGCCCGGGCGUAUGGCAACGCGGAGCCAAGCUUCGGCGCCUGCGCCGAUGAAGGUGUAGGGACUAGACGGCACCCACCUAAGGCGAACGUUAUGGUGAAGGCAUAGUCAAGGGAGAGGCGAAAGUCACACAAACCGG [C82G A120G A145G C150U C169A U176A], the reverse-splicing fitness rises from 0.0169 to 0.0171.

Compared with GUGCCUUGCGCCGGGAAACCACGCAAGGGAUGGUGUCAAAUUCGGCGAAACCUAAGCGCCCGCCCGGGCGUAUGGCAACGCGGAGCCAAGCUUCGGCGCCUGCGCCGAUGAAGGUGUAGGGACUAGACGGCACCCACCUAAGGCGAACGUUAUGGUGAAGGCAUAGUCAAGGGAGGGGCGAAAGUCACACAAACCGG [C82G A120G A145G C150U C169A U176G], GUGCCUUGCGCCGGGAAACCACGCAAGGGAUGGUGUCAAAUUCGGCGAAACCUAAGCGCCCGCCCGGGCGUAUGGCAACGCGGAGCCAAGCUUCGGCGCCUGCGCCGAUGAAGGUGUAGGGACUAGACGGCACCCACCUAAGGCGAACGUUAUGGUGAAGGCAUAGUCAAGGGAGCGGCGAAAGUCACACAAACCGG [C82G A120G A145G C150U C169A U176C] is higher in reverse-splicing fitness: 0.00521 for the first, 0.0181 for the second.

Going from GUGCCUUGCGCCGGGAAACCACGCAAGGGAUGGUGUCAAAUUCGGCGAAACCUAAGCGCCCGCCCGGGCGUAUGGCAACGCGGAGCCAAGCUUCGGCGCCUGCGCCGAUGAAGGUGUAGGGACUAGACGGCACCCACCUAAGGCGAACGUUAUGGUGAAGGCAUAGUCCAGGGAGGGGCGAAAGUCACACAAACCGG [C82G A120G A145G C150U U176G] to GUGCCUUGCGCCGGGAAACCACGCAAGGGAUGGUGUCAAAUUCGGCGAAACCUAAGCGCCCGCCCGGGCGUAUGGCAACGCGGAGCCAAGCUUCGGCGCCUGCGCCGAUGAAGGUGUAGGGACUAGACGGCACCCACCUAAGGCGAACGUUAUGGUGAAGGCAUAGUCCAGGGAGAGGCGAAAGUCACACAAACCGG [C82G A120G A145G C150U U176A], the reverse-splicing fitness rises from 0.0072 to 0.0107.

Going from GUGCCUUGCGCCGGGAAACCACGCAAGGGAUGGUGUCAAAUUCGGCGAAACCUAAGCGCCCGCCCGGGCGUAUGGCAACGCGGAGCCAAGCUUCGGCGCCUGCGCCGAUGAAGGUGUAGGGACUAGACGGCACCCACCUAAGGCGAACGUUAUGGUGAAGGCAUAGUCCAGGGAGCGGCGAAAGUCACACAAACCGG [C82G A120G A145G C150U U176C] to GUGCCUUGCGCCGGGAAACCACGCAAGGGAUGGUGUCAAAUUCGGCGAAACCUAAGCGCCCGCCCGGGCGUAUGGCAACGCGGAGCCAAGCUUCGGCGCCUGCGCCGAUGAAGGUGUAGGGACUAGACGGCACCCACCUAAGGCGAACGUUAUGGUGAAGGCAUAGUCGAGGGAGUGGCGAAAGUCACACAAACCGG [C82G A120G A145G C150U C169G], the reverse-splicing fitness rises from 0.0211 to 0.04.

Compared with GUGCCUUGCGCCGGGAAACCACGCAAGGGAUGGUGUCAAAUUCGGCGAAACCUAAGCGCCCGCCCGGGCGUAUGGCAACGCGGAGCCAAGCUUCGGCGCCUGCGCCGAUGAAGGUGUAGGGACUAGACGGCACCCACCUAAGGCGAACGUUAUGGUGAAGGCAUAGUCUAGGGAGUGGCGAAAGUCACACAAACCGG [C82G A120G A145G C150U C169U], GUGCCUUGCGCCGGGAAACCACGCAAGGGAUGGUGUCAAAUUCGGCGAAACCUAAGCGCCCGCCCGGGCGUAUGGCAACGCGGAGCCAAGCUUCGGCGCCUGCGCCGAUGAAGGUGUAGGGACUAGACGGCACCCACCUAAGGCGAACGUUAUGGUGAAGGCAUAGUCAAGGGAGUGGCGAAAGUCACACAAACCGG [C82G A120G A145G C150U C169A] is higher in reverse-splicing fitness: 0.0236 for the first, 0.0266 for the second.

Compared with GUGCCUUGCGCCGGGAAACCACGCAAGGGAUGGUGUCAAAUUCGGCGAAACCUAAGCGCCCGCCCGGGCGUAUGGCAACGCGGAGCCAAGCUUCGGCGCCUGCGCCGAUGAAGGUGUAGGGACUAGACGGCACCCACCUAAGGCGAACGUUAUGGUGAAGGCAUAGUCUAGGGAGAGGCGAAAGUCACACAAACCGG [C82G A120G A145G C150U C169U U176A], GUGCCUUGCGCCGGGAAACCACGCAAGGGAUGGUGUCAAAUUCGGCGAAACCUAAGCGCCCGCCCGGGCGUAUGGCAACGCGGAGCCAAGCUUCGGCGCCUGCGCCGAUGAAGGUGUAGGGACUAGACGGCACCCACCUAAGGCGAACGUUAUGGUGAAGGCAUAGUCUAGGGAGGGGCGAAAGUCACACAAACCGG [C82G A120G A145G C150U C169U U176G] is lower in reverse-splicing fitness: 0.0213 for the first, 0.00473 for the second.

For GUGCCUUGCGCCGGGAAACCACGCAAGGGAUGGUGUCAAAUUCGGCGAAACCUAAGCGCCCGCCCGGGCGUAUGGCAACGCGGAGCCAAGCUUCGGCGCCUGCGCCGAUGAAGGUGUAGGGACUAGACGGCACCCACCUAAGGCGAACGUUAUGGUGAAGGCAUAGUCUAGGGAGCGGCGAAAGUCACACAAACCGG [C82G A120G A145G C150U C169U U176C], the reverse-splicing fitness was 0.0187.
